The results in this text go back to article PMC8809517, “Cofactor-independent RNA editing by a synthetic S-type PPR protein”.

For orientation: Kd means the concentration at which binding is half-saturated. A low value points to tighter binding.

Assay in all cases: high-throughput RNA pulldown from lysate on Ni-NTA beads; HRP: 50 mM Tris pH 8, 150 mM NaCl, 1 mM beta-mercaptoethanol, 50 ug/ml BSA, 3 ug/ml yeast RNA, 0.5% heparin; ITC and FP: Tris pH 8, 200 mM KCl, 5% glycerol; MST: 50 mM Tris pH 8, 200 mM NaCl, 1 mM DTT, BSA, heparin, 0.05% Tween 20
What all share (conditions): tags: N-terminal His-eGFP

The target of data set [1] is T1, GFP-9S library array, motif 4 ND N98I;D124C (synthetic construct, N98I;D124C).
T1 chain: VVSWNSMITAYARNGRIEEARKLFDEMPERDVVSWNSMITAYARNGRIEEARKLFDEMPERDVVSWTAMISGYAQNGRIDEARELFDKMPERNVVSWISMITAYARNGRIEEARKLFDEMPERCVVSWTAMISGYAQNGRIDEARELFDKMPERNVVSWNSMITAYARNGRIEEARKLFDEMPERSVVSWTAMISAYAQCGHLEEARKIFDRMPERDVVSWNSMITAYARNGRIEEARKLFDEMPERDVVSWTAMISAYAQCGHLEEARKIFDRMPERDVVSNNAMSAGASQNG

For data set [2], the target named is T2, GFP-9S library array, motif 4 ND N98C;D124F (synthetic construct, N98C;D124F).
T2 chain: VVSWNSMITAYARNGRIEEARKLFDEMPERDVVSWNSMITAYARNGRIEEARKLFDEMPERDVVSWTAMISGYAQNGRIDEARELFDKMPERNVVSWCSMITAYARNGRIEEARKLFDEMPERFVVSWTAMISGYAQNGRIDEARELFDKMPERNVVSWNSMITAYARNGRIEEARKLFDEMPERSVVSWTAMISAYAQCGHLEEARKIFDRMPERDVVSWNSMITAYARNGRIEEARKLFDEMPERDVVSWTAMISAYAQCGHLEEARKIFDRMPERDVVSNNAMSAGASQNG

Data set [3] deals with T3, GFP-9S library array, motif 4 ND D124E (synthetic construct, D124E).
T3 chain: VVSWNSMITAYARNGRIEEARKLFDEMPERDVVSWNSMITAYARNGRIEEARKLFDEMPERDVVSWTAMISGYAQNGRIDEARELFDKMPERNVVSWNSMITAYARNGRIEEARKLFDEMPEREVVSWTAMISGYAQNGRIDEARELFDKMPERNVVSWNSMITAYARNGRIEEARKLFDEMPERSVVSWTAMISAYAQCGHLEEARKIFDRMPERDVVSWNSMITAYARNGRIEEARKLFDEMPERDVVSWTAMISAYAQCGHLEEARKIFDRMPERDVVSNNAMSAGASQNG

The target in data set [4] is T4, GFP-9S library array, motif 4 ND N98V;D124L (synthetic construct, N98V;D124L).
T4 chain: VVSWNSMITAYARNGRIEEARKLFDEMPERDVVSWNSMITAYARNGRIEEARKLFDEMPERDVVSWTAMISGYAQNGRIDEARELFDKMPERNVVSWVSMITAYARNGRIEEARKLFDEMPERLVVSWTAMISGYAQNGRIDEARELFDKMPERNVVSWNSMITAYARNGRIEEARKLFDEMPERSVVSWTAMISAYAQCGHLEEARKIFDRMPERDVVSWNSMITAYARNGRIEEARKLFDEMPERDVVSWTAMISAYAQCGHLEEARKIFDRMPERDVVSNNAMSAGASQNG

In data set [5] the target is T5, GFP-9S library array, motif 4 ND N98W;D124S (synthetic construct, N98W;D124S).
T5 chain: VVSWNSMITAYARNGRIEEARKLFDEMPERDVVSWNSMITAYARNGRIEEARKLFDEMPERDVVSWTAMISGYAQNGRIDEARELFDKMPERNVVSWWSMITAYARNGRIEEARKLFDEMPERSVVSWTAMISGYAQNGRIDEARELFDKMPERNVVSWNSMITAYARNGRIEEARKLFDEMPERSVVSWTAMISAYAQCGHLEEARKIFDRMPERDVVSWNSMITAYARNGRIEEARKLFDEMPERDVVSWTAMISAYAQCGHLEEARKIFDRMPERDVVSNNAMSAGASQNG

B1: IR-rpoA-A (ssRNA)
RNA: AUUAAACGUGA
For B1, the Kd in data set [1] (label: 5' IRDye 800CW) is 42.5 nM; in data set [2] (label: 5' IRDye 800CW) it was 203 nM; in data set [3] (label: 5' IRDye 800CW) it was 139 nM; in data set [4] (label: 5' IRDye 800CW), 199 nM; in data set [5] (label: 5' IRDye 800CW) it was 247 nM.

B2: Cy5-rpoA-G (ssRNA)
RNA: AUUAGACGUGA
Turning to B2, the Kd in data set [1] (label: 5' Cy5) worked out at 90.6 nM; in data set [2] (label: 5' Cy5) it was 100 nM; in data set [3] (label: 5' Cy5), 276 nM; in data set [4] (label: 5' Cy5), 112 nM; in data set [5] (label: 5' Cy5) it was 79.8 nM.

B3: IR-rpoA-U (ssRNA)
RNA: AUUAUACGUGA
Consider B3, for which the Kd in data set [1] (label: 5' IRDye 800CW) was 32.9 nM; in data set [2] (label: 5' IRDye 800CW), 317 nM; in data set [3] (label: 5' IRDye 800CW), 3.54 nM; in data set [4] (label: 5' IRDye 800CW) it was 126 nM; in data set [5] (label: 5' IRDye 800CW) it was 263 nM.

B4: Cy5-rpoA (ssRNA)
RNA: AUUACACGUGA
Take B4: the Kd in data set [1] (label: 5' Cy5) turned out to be 182 nM; in data set [2] (label: 5' Cy5), 126 nM; in data set [3] (label: 5' Cy5) it was 10.5 nM; in data set [4] (label: 5' Cy5), 88.5 nM; in data set [5] (label: 5' Cy5) it was 89.2 nM.
